# Laboratory results as given in the Immune Epitope Database (IEDB).
# Columns and labels:
# HLA-A*24:03 = experiment: IEDB peptide-MHC binding, purified MHC/direct/fluorescence; filed as Kd, often an IC50 or EC50 that approximates it; ≥ and ≤ were set here for values at or beyond the usual limits of such assays
# HLA-A*68:02 = experiment: as above
# HLA-A*02:19 = experiment: as above
# HLA-B*15:01 [1] = experiment: as above; details: source organism: Yersinia enterocolitica subsp. enterocolitica 8081
# HLA-A*02:16 = experiment: as above
# HLA-A*02:01 [2] = experiment: as above; details: source organism: Yersinia enterocolitica subsp. enterocolitica 8081
# HLA-B*15:17 [3] = experiment: as above; details: source organism: Yersinia enterocolitica subsp. enterocolitica 8081
# HLA-A*02:12 = experiment: as above
# HLA-A*02:11 = experiment: as above
# HLA-B*57:01 [4] = experiment: as above; details: source organism: Yersinia enterocolitica subsp. enterocolitica 8081
# HLA-A*02:03 = experiment: as above
# HLA-B*39:01 [5] = experiment: as above; details: source organism: Yersinia enterocolitica subsp. enterocolitica 8081
# HLA-A*69:01 [6] = experiment: as above; details: source organism: Yersinia enterocolitica subsp. enterocolitica 8081
# HLA-A*26:01 [7] = experiment: as above; details: source organism: Yersinia enterocolitica subsp. enterocolitica 8081
# HLA-B*27:03 [8] = experiment: as above; details: source organism: Yersinia enterocolitica subsp. enterocolitica 8081
# HLA-B*18:01 [9] = experiment: as above; details: source organism: Yersinia enterocolitica subsp. enterocolitica 8081
# HLA-B*46:01 [10] = experiment: as above; details: source organism: Yersinia enterocolitica subsp. enterocolitica 8081
# HLA-A*03:01 [11] = experiment: as above
# HLA-B*07:02 = experiment: IEDB peptide-MHC binding, purified MHC/competitive/fluorescence; filed as Kd, often an IC50 or EC50 that approximates it; ≥ and ≤ were set here for values at or beyond the usual limits of such assays; details: source organism: Escherichia coli 536
# HLA-B*08:01 = experiment: as above; details: source organism: Escherichia coli 536
# HLA-B*51:01 = experiment: as above
# HLA-B*15:01 [12] = experiment: as above
# HLA-B*40:01 = experiment: as above; details: source organism: Escherichia coli
# HLA-B*39:01 [13] = experiment: as above
# HLA-A*03:01 [14] = experiment: as above; details: source organism: Yersinia pestis Nepal516
# HLA-A*01:01 = experiment: as above
# HLA-A*02:01 [15] = experiment: as above; details: source organism: Orthohantavirus tulaense
# HLA-B*15:17 [16] = experiment: as above; details: source organism: Orthohantavirus tulaense
# HLA-B*57:01 [17] = experiment: as above; details: source organism: Orthohantavirus tulaense
# HLA-A*69:01 [18] = experiment: as above; details: source organism: Orthohantavirus tulaense
# HLA-A*26:01 [19] = experiment: as above; details: source organism: Orthohantavirus tulaense
# HLA-B*27:03 [20] = experiment: as above; details: source organism: Orthohantavirus tulaense
# HLA-B*18:01 [21] = experiment: as above; details: source organism: Orthohantavirus tulaense
# HLA-B*46:01 [22] = experiment: as above; details: source organism: Orthohantavirus tulaense
# HLA-A*29:02 = experiment: IEDB peptide-MHC binding, purified MHC/direct/fluorescence; filed as Kd, often an IC50 or EC50 that approximates it; ≥ and ≤ were set here for values at or beyond the usual limits of such assays; details: source organism: Orthohantavirus tulaense
# HLA-A*23:01 = experiment: as above; details: source organism: Orthohantavirus tulaense
# [23] = source organism: Yersinia enterocolitica subsp. enterocolitica 8081
# [24] = source organism: Escherichia coli
# [25] = source organism: Yersinia pestis Nepal516
# [26] = source organism: Orthohantavirus tulaense
sequence,measurement,setting,value
KSRQGDTKV,Kd,HLA-A*24:03; [23],≥ 20 µM
same,Kd,HLA-A*68:02; [23],≥ 20 µM
same,Kd,HLA-A*02:19; [23],≥ 20 µM
same,Kd,HLA-B*15:01 [1],≥ 20 µM
same,Kd,HLA-A*02:16; [23],≥ 20 µM
same,Kd,HLA-A*02:01 [2],≥ 20 µM
same,Kd,HLA-B*15:17 [3],0.28 µM
same,Kd,HLA-A*02:12; [23],≥ 20 µM
same,Kd,HLA-A*02:11; [23],≥ 20 µM
same,Kd,HLA-B*57:01 [4],≥ 20 µM
same,Kd,HLA-A*02:03; [23],≥ 20 µM
same,Kd,HLA-B*39:01 [5],≥ 20 µM
same,Kd,HLA-A*69:01 [6],≥ 20 µM
same,Kd,HLA-A*26:01 [7],≥ 20 µM
same,Kd,HLA-B*27:03 [8],≥ 20 µM
same,Kd,HLA-B*18:01 [9],≥ 20 µM
same,Kd,HLA-B*46:01 [10],≥ 20 µM
same,Kd,HLA-A*03:01 [11]; [23],≥ 20 µM
HPYKIPATV,Kd,HLA-B*07:02,0.197 µM
same,Kd,HLA-B*08:01,0.398 µM
same,Kd,HLA-B*51:01; source organism: Escherichia coli 536,0.309 µM
LQEEMAETL,Kd,HLA-B*15:01 [12]; [24],≥ 20 µM
same,Kd,HLA-B*40:01,0.866 µM
same,Kd,HLA-B*39:01 [13]; [24],0.108 µM
NTLGITHLY,Kd,HLA-B*15:01 [12]; [25],3.02 µM
same,Kd,HLA-A*03:01 [14],≥ 20 µM
same,Kd,HLA-A*01:01; [25],0.0448 µM
VVDALRNIY,Kd,HLA-B*51:01; [26],≥ 20 µM
same,Kd,HLA-A*02:01 [15],≥ 20 µM
same,Kd,HLA-B*15:17 [16],≥ 20 µM
same,Kd,HLA-B*57:01 [17],≥ 20 µM
same,Kd,HLA-B*39:01 [13]; [26],≥ 20 µM
same,Kd,HLA-A*69:01 [18],≥ 20 µM
same,Kd,HLA-A*26:01 [19],≥ 20 µM
same,Kd,HLA-B*27:03 [20],≥ 20 µM
same,Kd,HLA-B*18:01 [21],≥ 20 µM
same,Kd,HLA-B*46:01 [22],≥ 20 µM
same,Kd,HLA-A*01:01; [26],0.0063 µM
same,Kd,HLA-A*24:03; [26],≥ 20 µM
same,Kd,HLA-A*68:02; [26],≥ 20 µM
same,Kd,HLA-A*02:19; [26],≥ 20 µM
same,Kd,HLA-A*02:16; [26],≥ 20 µM
same,Kd,HLA-A*02:12; [26],≥ 20 µM
same,Kd,HLA-A*02:11; [26],≥ 20 µM
same,Kd,HLA-A*02:03; [26],≥ 20 µM
same,Kd,HLA-A*29:02,≥ 20 µM
same,Kd,HLA-A*23:01,≥ 20 µM
same,Kd,HLA-A*03:01 [11]; [26],≥ 20 µM
